Source: patent US20210238289A1
Values belong to the substance of their own block, whether it stands above or below them.

Key:
[1] = molecular target: VLA-4 on tumor cell lines (UniProt P13612); assay: flow cytometry on H929 cells (MM)
[2] = molecular target: VLA-4 on tumor cell lines (UniProt P13612); assay: flow cytometry on JM1 cells (CLL)
[3] = molecular target: VLA-4 on tumor cell lines (UniProt P13612); assay: flow cytometry on KG1 cells (AML)
[4] = molecular target: VLA-4 on tumor cell lines (UniProt P13612); assay: flow cytometry on U266 cells (MM)
[5] = molecular target: VLA-4 on tumor cell lines (UniProt P13612); assay: flow cytometry on HL60 cells (AML)
[6] = molecular target: VLA-4 on tumor cell lines (UniProt P13612); assay: flow cytometry on Mec1 cells (CLL)
[7] = molecular target: VLA-4 on tumor cell lines (UniProt P13612); assay: inhibition of adhesion of JM1 cells to VCAM1-Ig-coated wells
[8] = molecular target: VLA-4 on tumor cell lines (UniProt P13612); assay: inhibition of adhesion of KG1 cells to VCAM1-Ig-coated wells
[9] = molecular target: VLA-4 on tumor cell lines (UniProt P13612); assay: inhibition of adhesion of H929 cells to VCAM1-Ig-coated wells
[10] = molecular target: VLA-4 on tumor cell lines (UniProt P13612); assay: inhibition of adhesion of HL60 cells to VCAM1-Ig-coated wells
[11] = molecular target: VLA-4 on tumor cell lines (UniProt P13612); assay: inhibition of adhesion of Mec1 cells to VCAM1-Ig-coated wells
[12] = molecular target: VLA-4 on tumor cell lines (UniProt P13612); assay: inhibition of adhesion of U266 cells to VCAM1-Ig-coated wells
[13] = molecular target: VLA-4 on tumor cell lines (UniProt P13612); assay: inhibition of adhesion of KG1 cells to fibronectin-coated wells
[14] = molecular target: VLA-4 on tumor cell lines (UniProt P13612); assay: inhibition of adhesion of H929 cells to fibronectin-coated wells
[15] = molecular target: VLA-4 on tumor cell lines (UniProt P13612); assay: inhibition of adhesion of HL60 cells to fibronectin-coated wells
[16] = molecular target: VLA-4 on tumor cell lines (UniProt P13612); assay: inhibition of adhesion of Mec1 cells to fibronectin-coated wells
[17] = molecular target: VLA-4 on tumor cell lines (UniProt P13612); assay: inhibition of adhesion of U266 cells to fibronectin-coated wells
[18] = molecular target: α4β1 (VLA-4) as used in the competition ELISAs (UniProt P13612); assay: competition ELISA; mixture of mouse HP1/2 with test mAb binding to integrin
[19] = molecular target: α4β1 (VLA-4) as used in the competition ELISAs (UniProt P13612); assay: competition ELISA; integrin preincubated with test mAb, then murine HP1/2 as competing reagent
[20] = molecular target: CD32a (UniProt P12318); assay: solution competition SPR (Biacore)
[21] = molecular target: VLA receptors (alpha-4 integrin) of cynomolgus monkeys in vivo (cynomolgus monkey); assay: free receptor measured in cynomolgus monkeys after a single IV dose
[22] = molecular target: VLA receptors (alpha-4 integrin) of cynomolgus monkeys in vivo (cynomolgus monkey); assay: model-estimated (direct Emax PKPD model) EC50 for the formation of drug-bound VLA in cynomolgus monkeys

Chain of TYSABRI (natalizumab) (antibody) (VH): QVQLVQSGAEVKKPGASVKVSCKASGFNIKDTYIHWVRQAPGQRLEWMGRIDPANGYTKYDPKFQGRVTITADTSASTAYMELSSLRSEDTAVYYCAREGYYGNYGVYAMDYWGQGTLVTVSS
Chain of TYSABRI (natalizumab) (antibody) (VL): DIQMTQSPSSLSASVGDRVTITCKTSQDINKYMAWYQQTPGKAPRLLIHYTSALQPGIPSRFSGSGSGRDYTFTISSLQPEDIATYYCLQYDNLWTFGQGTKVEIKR

EC50 [1]: 0.00091 µM | EC50 [2]: 0.00021 µM | EC50 [3]: 0.00019 µM | EC50 [4]: 0.00046 µM | EC50 [5]: 0.00011 µM | EC50 [6]: 0.00011 µM | IC50 [7]: 0.00012 µM | IC50 [8]: 0.0001 µM | IC50 [9]: 0.00135 µM | IC50 [10]: 0.00091 µM | IC50 [11]: 0.07 nM | IC50 [12]: 0.00013 µM | IC50 [13]: 0.05 nM | IC50 [14]: 0.00021 µM | IC50 [15]: 0.00016 µM | IC50 [16]: 0.0001 µM | IC50 [17]: 0.00014 µM | IC50 [18]: 0.00141 µM | IC50 [19]: 0.00105 µM
Substance: HuHP1/2 (antibody)

IC50 [20]: 1280 µM
Substance: EAG2379 (hu5c8 IgG1 T299E) (antibody)

receptor occupancy [21]: > 90% | EC50 [22]: 6.4 ng/mL
Substance: TYSABRI (natalizumab) (antibody)
